Data: US20230383009A1 (CARIBOU BIOSCIENCES, published 2023)
Blank lines part the entries; values can stand above or below the binder they belong to.

Columns and labels:
[1] = molecular target: T1, ROR1 on human cancer cell lines (HepG2, MDA231, HT-29, SKOV-3) (human, UniProt Q01973 30-937); experiment: flow cytometry (FACS) on cancer cell lines
T1 construct: whole, on cells; Endogenous ROR1 of tumour cell lines, not transfected cells; also called ROR1-positive cells; ROR1-expressing cell line SKOV-3
From the text: Normal keratinocytes were used as a negative control (FIG. 4). (MFI: […] compared to the isotype).

[2] = molecular target: T2, extracellular ROR1 protein (human, UniProt Q01973 30-406); experiment: ELISA
T2 construct: extracellular domain

[3] = molecular target: T3, ROR1 extracellular domain fused to human Fc (hFc) protein (human, UniProt Q01973 30-406); experiment: Western blot, anti-ROR1 scFv-mouse Fc fusion as primary antibody, anti-mouse IgG-HRP as secondary
T3 construct: extracellular domain; also called ROR1-human Fc fusion protein; human ROR1 antigen; not shown: human Fc (hFc)
From the text: In this example, we generated a mouse monoclonal anti-ROR1 antibody using standard hybridoma technology. The mouse anti-ROR1 antibody (IgG1 type) detected extracellular ROR1 protein by ELISA (data not shown). We sequenced this hybridoma clone 2H6 and generated an scFv using VH and VL (see further in Example 2). […] The ROR1-human Fc fusion protein was detected with an antibody directed against the human Fc domain.

T1 sequence (Q01973 30-937): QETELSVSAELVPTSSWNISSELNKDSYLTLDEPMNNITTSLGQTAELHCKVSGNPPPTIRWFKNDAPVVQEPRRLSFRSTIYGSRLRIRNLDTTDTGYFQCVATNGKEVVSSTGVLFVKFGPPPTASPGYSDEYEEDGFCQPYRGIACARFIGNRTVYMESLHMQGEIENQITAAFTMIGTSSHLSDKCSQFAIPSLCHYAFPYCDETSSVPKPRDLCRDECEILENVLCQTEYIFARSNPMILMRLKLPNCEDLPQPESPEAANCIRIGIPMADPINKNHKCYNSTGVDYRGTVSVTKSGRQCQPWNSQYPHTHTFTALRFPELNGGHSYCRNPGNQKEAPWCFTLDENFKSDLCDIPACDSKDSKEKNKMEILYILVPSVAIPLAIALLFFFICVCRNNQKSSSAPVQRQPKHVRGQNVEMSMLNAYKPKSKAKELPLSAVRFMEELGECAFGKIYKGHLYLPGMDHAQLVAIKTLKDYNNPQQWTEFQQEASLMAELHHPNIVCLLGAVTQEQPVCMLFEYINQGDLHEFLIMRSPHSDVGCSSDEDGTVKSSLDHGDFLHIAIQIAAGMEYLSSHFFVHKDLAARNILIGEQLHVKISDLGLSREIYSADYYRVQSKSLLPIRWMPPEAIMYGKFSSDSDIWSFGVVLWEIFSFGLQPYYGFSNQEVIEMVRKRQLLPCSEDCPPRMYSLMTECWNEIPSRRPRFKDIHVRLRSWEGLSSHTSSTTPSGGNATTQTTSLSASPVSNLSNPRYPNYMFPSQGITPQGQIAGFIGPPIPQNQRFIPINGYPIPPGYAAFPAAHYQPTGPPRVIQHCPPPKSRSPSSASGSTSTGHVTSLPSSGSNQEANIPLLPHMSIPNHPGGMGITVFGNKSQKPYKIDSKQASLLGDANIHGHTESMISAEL
T2 sequence (Q01973 30-406): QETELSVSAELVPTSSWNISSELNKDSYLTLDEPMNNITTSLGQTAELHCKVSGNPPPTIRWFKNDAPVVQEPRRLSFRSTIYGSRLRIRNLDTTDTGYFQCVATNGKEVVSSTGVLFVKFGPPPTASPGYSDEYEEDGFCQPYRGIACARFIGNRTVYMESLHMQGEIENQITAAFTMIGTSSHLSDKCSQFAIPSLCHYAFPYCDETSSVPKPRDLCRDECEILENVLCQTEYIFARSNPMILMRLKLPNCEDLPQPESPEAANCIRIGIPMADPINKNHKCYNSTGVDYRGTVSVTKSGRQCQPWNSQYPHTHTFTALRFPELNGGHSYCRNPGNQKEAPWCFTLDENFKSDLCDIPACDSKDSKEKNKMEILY
T3 sequence (Q01973 30-406): as above

- binding result [1]: binds
- binding result [2]: binds
B1: mouse monoclonal anti-ROR1 antibody, hybridoma clone 2H6 (antibody, V domains shown)
VH: VKLVESGGGLVKPGGSLKLSCAASGFTFSTYAMSWVRQTPEKRLEWVASISSGGNTYYPDSVKGRFTISRDNARHILYLQMSSLRSEDTAMYYCARDSYYFGNSVYYAMDYWGQGTSVTVSS
VL: DIKMTQSPSSMYASLGERVTITCKASQDINSYFSWFQQKPGKSPKTLIYRANRLVDGVPSRFSGSGSGQDYSLTISSLEYEDMGIYYCLQYDEFPYTFGGGTKLEIKR
notes: Hybridoma antibody, mouse IgG1 type; also called mouse anti-ROR1 antibody (IgG1 type); mouse anti-ROR1 monoclonal antibody

- binding result [3]: binds
B2: anti-ROR1 scFv-mouse Fc fusion (scFv of clone 2H6) (Fc fusion)
scFv: VKLVESGGGLVKPGGSLKLSCAASGFTFSTYAMSWVRQTPEKRLEWVASISSGGNTYYPDSVKGRFTISRDNARHILYLQMSSLRSEDTAMYYCARDSYYFGNSVYYAMDYWGQGTSVTVSSGGGGSGGGGSGGGGSDIKMTQSPSSMYASLGERVTITCKASQDINSYFSWFQQKPGKSPKTLIYRANRLVDGVPSRFSGSGSGQDYSLTISSLEYEDMGIYYCLQYDEFPYTFGGGTKLEIKR
notes: Used as the primary antibody in the Western blot. scFv is VH-(G4S)3-VL; The mouse Fc part is not described; also called anti-ROR1 scFv (mouse clone 2H6); not shown: mouse Fc
